Results: paper PMC10958042

B1: ATGL (PNPLA2, patatin-like phospholipase domain-containing protein 2), human, full length / G0S2 (G0/G1 switch protein 2), human (parent)
chain 1: MFPREKTWNISFAGCGFLGVYYVGVASCLREHAPFLVANATHIYGASAGALTATALVTGVCLGEAGAKFIEVSKEARKRFLGPLHPSFNLVKIIRSFLLKVLPADSHEHASGRLGISLTRVSDGENVIISHFNSKDELIQANVCSGFIPVYCGLIPPSLQGVRYVDGGISDNLPLYELKNTITVSPFSGESDICPQDSSTNIHELRVTNTSIQFNLRNLYRLSKALFPPEPLVLREMCKQGYRDGLRFLQRNGLLNRPNPLLALPPARPHGPEDKDQAVESAQAEDYSQLPGEDHILEHLPARLNEALLEACVEPTDLLTTLSNMLPVRLATAMMVPYTLPLESALSFTIRLLEWLPDVPEDIRWMKEQTGSICQYLVMRAKRKLGRHLPSRLPEQVELRRVQSLPSVPLSCAAYREALPGWMRNNLSLGDALAKWEECQRQLLLGLFCTNVAFPPEALRMRAPADPAPAPADPASPQHQLAGPAPLLSTPAPEARPVIGALGL
chain 2: METVQELIPLAKEMMAQKRKGKMVKLYVLGSVLALFGVVLGLMETVCSPFTAARRLRDQEAAVAELQAALERQALQKQALQEKGKQQDTVLGGRALSNRQHAS

Variants of: B1
Assay: LUMIER: Protein A-ATGL variant and firefly luciferase-partner co-expressed in HEK293T, lysates immunoprecipitated on IgG-coated plates, co-precipitated partner measured as luciferase luminescence
Settings: with G0S2 (G0/G1 switch protein 2), transient co-transfection, IgG-coated LUMITRAC plates, 2 h at 4 °C, three PBS washes, Bright-Glo luciferase reagent, triplicates per assay, two …, scale: log2 fold change of co-immunoprecipitated luminescence relative to wild-type ATGL within each experiment

chain 1 MFPREKTWNISFAGCGFLGVYYVGVASCLREHAPFLVANATHIYGASAGALTATALVTGVCLGEAGAKFIEVSKEARKRFLGPLHPAFNLVKIIRSFLLKVLPADSHEHASGRLGISLTRVSDGENVIISHFNSKDELIQANVCSGFIPVYCGLIPPSLQGVRYVDGGISDNLPLYELKNTITVSPFSGESDICPQDSSTNIHELRVTNTSIQFNLRNLYRLSKALFPPEPLVLREMCKQGYRDGLRFLQRNGLLNRPNPLLALPPARPHGPEDKDQAVESAQAEDYSQLPGEDHILEHLPARLNEALLEACVEPTDLLTTLSNMLPVRLATAMMVPYTLPLESALSFTIRLLEWLPDVPEDIRWMKEQTGSICQYLVMRAKRKLGRHLPSRLPEQVELRRVQSLPSVPLSCAAYREALPGWMRNNLSLGDALAKWEECQRQLLLGLFCTNVAFPPEALRMRAPADPAPAPADPASPQHQLAGPAPLLSTPAPEARPVIGALGL [chain 1 S87A]
screen value (parent: 0.26, not graded): -0.675
screen value (parent: 0.56, not graded): -0.33

chain 1 MFPREKTWNISFAGCGFLGVYYVGVASCLREHAPFLVANATHIYGASAGALTATALVTGVCLGEAGAKFIEVSKEARKRFLGPLHPSFNLVKIIRSFLLKVLPADSHEHASGRLGISLTRVSDGENVIISHFNSKDELIQANVCSGFIPVYCGLIPPSLQGVRYVDGGISDNLPLYELKNTITVSPFSGESDICPQDSSTNIHELRVTNTSIQFNLRNLYRLSKALFPPEPLVLREMCKQGYRDGLRFLQRNGLLNRPNPLLALPPARPHGPEDKDQAVESAQAEDYSQLPGEDHILEHLPARLNEALLEACVEPTDLLTTLSNMLPVRLATAMMVPYTLPLESALSFTILLLEWLPDVPEDIRWMKEQTGSICQYLVMRAKRKLGRHLPSRLPEQVELRRVQSLPSVPLSCAAYREALPGWMRNNLSLGDALAKWEECQRQLLLGLFCTNVAFPPEALRMRAPADPAPAPADPASPQHQLAGPAPLLSTPAPEARPVIGALGL [chain 1 R351L]
screen value (parent: 0.26, not graded): 0.121
screen value (parent: 0.56, not graded): 0.273

chain 1 MFPREKTWNISFAGCGFLGVYYVGVASCLREHAPFLVANATHIYGASAGALTATALVTGVCLGEAGAKFIEVSKEARKRFLGPLHPSFNLVKIIRSFLLKVLPADSHEHASGRLGISLTRVSDGENVIISHFNSKDELIQANVCSGFIPVYCGLIPPSLQGVRYVDGGISDNLPLYELKNTITVSPFSGESDICPQDSSTNIHELRVTNTSIQFNLRNLYRLSKALFPPEPLVLREMCKQGYRDGLRFLQRNGLLNRPNPLLALPPARPHGPEDKDQAVESAQAEDYSQLPGEDHILEHLPARLNEALLEACVEPTDLLTTLSNMLPVELATAMMVPYTLPLESALSFTIRLLEWLPDVPEDIRWMKEQTGSICQYLVMRAKRKLGRHLPSRLPEQVELRRVQSLPSVPLSCAAYREALPGWMRNNLSLGDALAKWEECQRQLLLGLFCTNVAFPPEALRMRAPADPAPAPADPASPQHQLAGPAPLLSTPAPEARPVIGALGL [chain 1 R329E]
screen value (parent: 0.26, not graded): -0.556
screen value (parent: 0.56, not graded): -0.22
